In article PMC5413351 (2017):
Where no end group is shown, it is not given here. fluorescein‑5‑maleimide = fluorescein-5-maleimide

T1: Vps4^101-437 L151D (S. cerevisiae, UniProt P52917 101-437, L151D)
T1 sequence: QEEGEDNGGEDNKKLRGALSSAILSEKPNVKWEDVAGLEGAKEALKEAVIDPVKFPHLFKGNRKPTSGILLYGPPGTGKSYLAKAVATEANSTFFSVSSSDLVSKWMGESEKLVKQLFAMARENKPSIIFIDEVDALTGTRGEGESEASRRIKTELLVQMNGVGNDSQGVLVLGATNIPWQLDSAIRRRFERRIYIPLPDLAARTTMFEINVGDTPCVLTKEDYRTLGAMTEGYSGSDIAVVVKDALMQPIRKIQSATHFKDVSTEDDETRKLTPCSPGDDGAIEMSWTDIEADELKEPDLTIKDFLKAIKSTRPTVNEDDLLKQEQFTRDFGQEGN

B1: fluorescently labeled Vta1^VSL S278C (domain or fragment)
chain: C(fluorescein‑5‑maleimide)YTKDELTKIMDRASKIEQIQKLAKYAISALNYEDLPTAKDELTKALDLLNSI
B2: fluorescently labeled Vta1^VSL S278C (domain or fragment)
chain: MASNAARVVATAKDFDKVGLGIIGYYLQLYAVELILSEEDRSQEMTALATELLDTIEAFKKEIGGESEAEDSDKSLHVMNTLIHDQEKAKIYMLNFTMSLYNEKLKQLKDGPWDVMLKRSLWCCIDLFSCILHLWKENISETSTNSLQKRIKYCKIYLSKLAKGEIGSSDEKTLDYADFADDSEEIKDEDVDHQTSDLENNNNDKVEGLAPKDQTTSYEPVDEVPEFIDDADSVNEEEQTVDKNEDAITKDEQQVVKKEVDLTRPSAPSEPAAAEHKCYTKDELTKIMDRASKIEQIQKLAKYAISALNYEDLPTAKDELTKALDLLNSI
modifications: fluorescein-5-maleimide on the single cysteine (S278C)

Legend:
Assay in all cases: FP
[1] = molecular target: T1, Vps4^101-437 L151D
[2] = molecular target: Vps4^101-437-Hcp1 R325D (S. cerevisiae | Pseudomonas aeruginosa, UniProt P52917 101-437, R325D)
[3] = molecular target: Vps4^101-437-Hcp1 K321A (S. cerevisiae | Pseudomonas aeruginosa, UniProt P52917 101-437, K321A)
[4] = molecular target: Vps4^101-437-Hcp1 E322A (S. cerevisiae | Pseudomonas aeruginosa, UniProt P52917 101-437, E322A)
[5] = molecular target: Vps4^101-437-Hcp1 (S. cerevisiae | Pseudomonas aeruginosa, UniProt P52917 101-437)

Binder | Kd [1] [nM] | Kd [2] [nM] | Kd [3] [nM] | Kd [4] [nM] | Kd [5] [nM]
B1 | 4400 | – | – | – | –
B2 | – | 564 | 367 | 72 | 184
